# Test results reported in PMC11601596.
# Columns and labels:
# [1] = biological target: Citrobacter sp. RHBSTW-00271 BubCD (JAB/JAMM family peptidase-E1 fusion), wild type (Citrobacter sp. RHBSTW-00271); experiment: crystal structure
# [2] = biological target: Citrobacter sp. RHBSTW-00271 BubCD D104A peptidase domain mutant (Citrobacter sp. RHBSTW-00271); experiment: crystal structure
Substance,stoichiometry N [1],stoichiometry N [2]
"Citrobacter sp. RHBSTW-00271 BubCD (JAB/JAMM family peptidase-E1 fusion), wild type (enzyme)",2,
Citrobacter sp. RHBSTW-00271 BubCD D104A peptidase domain mutant (enzyme),,2
